Test results taken from the Human Domainome abundance scans (Beltran et al. 2025).

B1: CD2-associated protein, residues 109 to 169; numbered along this chain, Q9Y5K6 (parent)
chain: KKRQCKVLFEYIPQNEDELELKVGDIIDINEEVEEGWWSGTLNNKLGLFPSNFVKELEVTD
B2: F-BAR and double SH3 domains protein 1, residues 467 to 528; numbered along this chain, Q86WN1 (parent)
chain: RALPCPAHVVFRYQAGREDELTITEGEWLEVIEEGDADEWVKARNQHGEVGFVPERYLNFPD

Variants of: B1
Test: abundance fitness (aPCA) (normalised: wild type 0, dead -1); higher = more abundant; growth selection in yeast, the domain comes from the species named
Settings: Homo sapiens

Abundance fitness of substitutions, site by site:
K55: Q 0.064, G -0.131, I -0.077, R 0.017, L -0.29, N -0.193, E 0.127, P -1.05, T -0.163, H -0.035, V -0.146, S -0.259, M 0.009
T60: K -0.006, Q 0.039, L 0.01, D 0.183, W -0.198, V -0.399, S -0.039, H 0.045, E 0.019, C -0.183, R -0.366, Y -0.489, M -0.257
E58: Q 0.202, I -0.23, G 0.094, W 0.098, S -0.035, M 0, V 0.078, A -0.305, L -0.062, N -0.057, T -0.211, F -0.207, R -0.232, K 0.027, D 0.056, C -0.073, Y -0.045
L57: S -0.601, K -0.263, G -0.864, R -0.64, C -0.041, T -0.269, Q -0.485, I 0.241, N -0.69, A -0.585, P -0.508, V -0.239, F -0.148, E -0.133, W -0.486
E56: A -0.366, I -0.225, C 0.034, F -0.406, Q -0.291, L -0.058, H -0.666, W -0.769, V -0.105, K 0.16, Y -0.717, D -0.505, S -0.32, P -0.224, T -0.033
D61: T -0.329, A -0.29, V -0.312, E 0.283, N -0.273, S -0.692, L -0.301, P 0.04, M -0.106, Q -0.014, R -0.261, C -0.561, H 0.346, Y -0.376, K -0.582
V59: K -0.283, H -0.012, F 0.229, T 0.01, S 0.163, M -0.219, N -0.342, L 0.013, Q -0.166, W -0.117, P -0.138, E 0.174, I -0.087, Y 0.036, A 0.001, R -0.131, C -0.123

Variants of: B2
Test: as above
Settings: Homo sapiens

Abundance fitness: each site, then its substitutions
F11: A 0.11, L -0.061, E 0.109, C 0.014, N 0.039, T 0.069, K 0.017, Q -0.103, P -0.774, G 0.095, S 0.013, M 0.141, Y 0.032, H 0.043, I 0.12, W -0.075, D 0.143
H8: D -0.282, Q -0.168, P -0.905, S -0.479, N -0.392, A -0.497, T -0.213, C -0.28, M -0.245, V -0.349, F -0.591, K -0.257, L -0.202, G -0.651, W -0.041
P4: R -0.505, Q -0.553, M -0.247, W -0.664, K -0.359, C -0.346, L -0.567, N -0.194, Y -0.477, H -0.472, T -0.136, E -0.285, A -0.496, G -0.333, F -0.451, I -0.381
L3: V -0.439, F 0.05, W -0.53, Q -0.362, D -0.486, I -0.058, M -0.121, E -0.503, A -0.693, N -0.127, C -0.121, K -0.276, T -0.201, P -0.242, S -0.193, R -0.333, G -0.609, Y 0.124, H -0.206
R12: E 0.17, I -0.792, T 0.023, D -0.024, N 0.033, H -0.188, C -0.056, F -0.01, Q -0.078, V -0.367, P -0.102, W -0.455, G 0.085, S 0.133, A 0.056, L -0.265
R1: G -0.238, F 0.053, E -0.431, V -0.519, M -0.548, Y -0.105, N 0.002, H -0.2, C -0.544, K -0.339, S -0.153, I -0.052, D -0.298, Q -0.294, L -0.47
C5: L -0.538, H -0.145, A -0.479, W -0.399, Y -0.215, G -0.386, P -0.857, R -0.431, D -1.04, M -0.595, I -0.419, Q -0.171, F -0.294
A2: F 0.144, G 0.133, N 0.147, R 0.053, C 0.031, D 0.153, K 0.169, Y 0.389, T 0.184, H -0.256, M 0.104, Q 0.007, W -0.146, E 0.196, V 0.128, L -0.007
Y13: W -0.167, L -0.595, K -0.16, T -0.629, G -0.463, A -0.504, F -0.06, S -0.356, D -0.648, M -0.594, N -0.38, H -0.109, E -0.959, R -0.226, P -0.711, V -0.785, C -0.486, I -0.742, Q -0.406
Q14: K -0.078, P -0.636, E -0.024, L -0.208, C -0.363, D 0.014, H -0.071, I -0.261, F -0.018, G -0.377, S -0.106, N 0.013, A -0.153, M -0.121
V10: W -0.236, P -1.05, D -0.109, L -0.165, R -0.098, N -0.336, Q -0.733, F -0.465, Y -0.118, H -0.158, C -0.037, M 0.005, E -0.247, S -0.105, I -0.021, G -0.179, K -0.094, T -0.167
P6: V -0.243, M -0.357, A -0.094, K -0.219, N -0.617, T -0.219, Y -0.258, Q -0.222, C -0.12, H -0.038, G -0.209, S -0.344, F -0.285, E -0.294, L -0.321, D -0.432, W -0.29, R -0.077
V9: I -0.795, E -0.411, Q -0.607, K -0.598, H -0.85, T -0.531, A 0.002, D -0.764, G -0.602, M -1.01, C -0.32, Y -0.631, S -0.752, L -0.835, W -0.902, P -0.781, R -0.788
A7: G -0.328, S -0.631, C -0.441, T -0.917, Q -0.854, D -0.976, W -0.98, K -1.05, N -0.521, P -0.788, R -0.617, Y -0.528, E -0.742, L -0.866, M -0.938, V -0.454
